Data from publication doi:10.1101/2020.06.26.173310.
Where two headings read alike, the source gives them in different places.

Assays:
[1] = target: response regulator from Deinococcus radiodurans (DrRR) (Deinococcus radiodurans strain R1) (UniProt Q9RZA5); assay: SPR
[2] = target: response regulator from Deinococcus radiodurans (DrRR) (Deinococcus radiodurans strain R1) (UniProt Q9RZA5); assay: SPR; remark: listed apart in the source
[3] = target: response regulator from Deinococcus radiodurans (DrRR) (Deinococcus radiodurans strain R1) (UniProt Q9RZA5); assay: SPR; remark: listed apart in the source
[4] = target: response regulator from Agrobacterium fabrum (AtRR) (Agrobacterium fabrum strain C58) (UniProt Q7CY46); assay: SPR
[5] = target: bacteriophytochrome from Deinococcus radiodurans (DrBphP) (Deinococcus radiodurans strain R1) (UniProt Q9RZA4); assay: ITC
Sequence of bacteriophytochrome from Deinococcus radiodurans (DrBphP) (Deinococcus radiodurans strain R1) (Q9RZA4 whole entry): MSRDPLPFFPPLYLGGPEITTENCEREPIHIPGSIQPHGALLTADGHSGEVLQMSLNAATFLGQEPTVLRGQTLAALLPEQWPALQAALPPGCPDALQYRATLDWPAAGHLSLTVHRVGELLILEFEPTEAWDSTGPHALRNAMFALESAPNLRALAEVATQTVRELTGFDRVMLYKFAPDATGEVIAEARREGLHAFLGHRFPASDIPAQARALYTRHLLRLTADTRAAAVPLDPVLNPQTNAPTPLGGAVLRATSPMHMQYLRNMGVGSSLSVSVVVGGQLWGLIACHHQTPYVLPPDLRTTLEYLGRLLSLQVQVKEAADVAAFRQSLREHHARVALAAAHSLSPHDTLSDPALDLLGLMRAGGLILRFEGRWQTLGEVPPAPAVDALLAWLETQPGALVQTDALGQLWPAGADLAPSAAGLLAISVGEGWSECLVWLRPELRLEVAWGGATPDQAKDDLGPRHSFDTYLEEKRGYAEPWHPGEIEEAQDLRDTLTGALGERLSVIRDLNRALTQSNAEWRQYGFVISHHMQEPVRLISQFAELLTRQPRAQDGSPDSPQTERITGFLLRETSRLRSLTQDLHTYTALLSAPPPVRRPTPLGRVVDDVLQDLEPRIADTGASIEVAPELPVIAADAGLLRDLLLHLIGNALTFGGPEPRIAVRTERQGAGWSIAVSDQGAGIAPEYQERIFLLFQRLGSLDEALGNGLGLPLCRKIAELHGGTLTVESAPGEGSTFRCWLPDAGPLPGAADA

[6] = target: bacteriophytochrome from Deinococcus radiodurans (DrBphP) (Deinococcus radiodurans strain R1) (UniProt Q9RZA4); assay: ITC; remark: listed apart in the source

## bacteriophytochrome from Deinococcus radiodurans (DrBphP) (from UniProt Q9RZA4 1-755) (natural protein)
[1]
  Kd: 43 µM
  stoichiometry N: 1
[2]
  Kd: 10 µM
[3]
  Kd: 60 µM

## phytochrome 1 from Agrobacterium fabrum strain C58 (AgP1) (from UniProt Q7CY45 1-736) (natural protein)
[4]
  Kd: > 200 µM

## response regulator from Deinococcus radiodurans (DrRR) (from UniProt Q9RZA5 1-149) (natural protein)
[5]
  Kd: 35 µM
[6]
  Kd: 10.5 µM
  stoichiometry N: 1
